The source of these data is publication PMC5093203 (Pharmaceutical Research, 2016).

Details of data set [1]: method as in 2 sources, ref 28 = [28]; PMID 22353017; doi:10.1021/mp200470c; 28. Gokarn YR McLean M Laue TM Effect of PEGylation on protein hydrodynamics Mol Pharm 2012 9 4 762 73 10.1021/mp200470c 22353017 ||| ref 28, 34, 35 = [28]; PMID 22353017; doi:10.1021/mp200470c; 28. Gokarn YR McLean M Laue TM Effect of PEGylation on protein hydrodynamics Mol Pharm 2012 9 4 762 73 10.1021/mp200470c 22353017 || [34]; PMID 23499718; doi:10.1016/j.jconrel.2013.03.006; 34. Kaminskas LM Ascher DB McLeod VM Herold MJ Le CP Sloan EK PEGylation of interferon alpha2 improves lymphatic exposure after subcutaneous and intravenous administration and improves antitumour effi || [35]; PMID 19686787; doi:10.1016/j.jconrel.2009.08.005; 35. Kaminskas LM Kota J McLeod VM Kelly BD Karellas P Porter CJ PEGylation of polylysine dendrimers improves absorption and lymphatic targeting following SC administration in rats J Controlled Release. As to conditions: 14.3-kDa egg white lysozyme with vs without 20-kDa PEG; cited from earlier work.

For data set [2] the following is noted: LDC sheep, SC commercially formulated human insulin; cited from earlier work.
Data set [3] is described as follows: Hydrodynamic size by dynamic light scattering (DLS). As to conditions: 25 ± 1°C, 90° scattering angle, 633 nm, ~85 μM in 1x PBS, viscosity-corrected. Type of data set: physicochemical.
Experimental: Weighed-samples of freeze-dried powder were dissolved in 1x phosphate-buffered saline (PBS) to a final concentration of ~85 μM. Concentrated protein stock solutions were diluted ~20-fold in 1 × PBS buffer to achieve a final concentration of ~85 μM. Protein concentrations (OD276 (1 mg/ml) = 1 for a 1 cm cuvette) were measured by NanoDrop (Thermo Fisher Scientific, Waltham, MA, USA). All samples were filtered through Whatman Anatop10™ low protein-binding filters (Whatman, Kent, UK) before the DLS experiments. Solution viscosity was measured by an m-VROC® (RheoSense, Inc., San Ramon, CA, USA) viscometer and light scattering data were corrected using the measured viscosity.
DLS measurements were carried out at 25 ± 1°C at a 90° scattering angle using an ALV/CGS-3 Compact Goniometer system with ALV/LSE-5003 Light Scattering Electronics and Multiple Tau Digital Correlator (ALV®-GmbH, Langen, Germany). The laser operating wavelength was 633 nm. The apparent hydrodynamic radius Rh was estimated via the Stoke-Einstein equation (Eq. 1):1 Rh=kBT/6πηD where, Rh is the apparent hydrodynamic radius (m), kB is the Boltzmann constant (kg^●m^2/s^2●K), T is the absolute temperature (K), η is the viscosity (kg/m•s), and D is the diffusion constant (m^2/s). DH is the apparent hydrodynamic diameter in nm or 2 Rhinnm . The viscosity measurement was performed with a solution concentration of 0.49 ± 0.02 mg/mL at 25°C. Viscosity mean and SD was determined from n ≥8 and reported as cP, (g/cm•s) = 10^−3 × Pa•s (kg/m•s)
Details of data set [4]: species or system Sprague Dawley rats. As to conditions: rat, in vivo, iv.
Experimental: The 5/6-nephrectomized and sham male Sprague Dawley rats were obtained from Taconic Farms (Albany, NY, USA). Animals were housed two per cage in polycarbonate cages with filter tops. Animals were maintained on a 12/12 h light/dark cycle (lights on at 6:00 AM). All animals received water and LabDiet 5001 (PMI Nutrition International, Brentwood, MO, USA) ad libitum. Animals were monitored daily during the 5-week time frame that allowed progression of the disease state. Seven weeks post-surgery, blood was collected by tail clip into serum tubes for measurement of serum creatinine and blood urea nitrogen. Three days later, urine was collected for 24 h from animals housed in metabolism cages. […]
BIL concentrations in serum and lymph were determined by ELISA performed by the bioanalytical testing facility Charles River Laboratories Preclinical Services (Senneville, Quebec, Canada) as described previously for rat serum ([27]). The assay quantitation range for rat serum was 20 pM to 500 pM. […] Samples above the upper limit of quantitation were diluted and reanalyzed to gain results within the calibrated range. […]
Noncompartmental pharmacokinetic parameters for the rat study were determined using WinNonlin® professional v5.3 (Pharsight, St. Louis, MO, USA) and for the sheep study using Watson^TM (version 7.4.2 PRD872, Thermo Fisher Scientific, Inc). […] Descriptive statistics were calculated as appropriate. […]
The nature of data set [5]: Serum pharmacokinetics in non-LDC sheep (IV, SC). It is filed as in vivo, merino sheep. On the procedure: (§1) Surgery was performed under aseptic conditions.
(§2) Blood samples (3 mL) were collected into 4 mL serum collection tubes (Becton, Dickinson and Company, Scoresby, Victoria, Australia) at the following time points (hour): predose, […] (1 min, IV only), 0.083 (5 min, IV only), 0.25 (15 min, IV only), 0.5, 1, 2, 3 (SC LDC only), 4, 6, 8, 10, 12 (all IV and SC LDC), 18 (SC non-LDC only), 30 (all SC), 39 (SC non-LDC only), 48 (all SC), 54 (all SC), 72 (all SC), 96 (SC LDC only), and 120 (SC LDC only) hours postdose. The jugular cannula was flushed with heparinized saline (50 IU/mL) between samples to maintain patency. Blood samples were allowed to stand at room temperature for up to 1 h and were then centrifuged for 10 min 6000 rpm to separate serum.
(§3) Noncompartmental pharmacokinetic parameters for the rat study were determined using WinNonlin® professional v5.3 (Pharsight, St. Louis, MO, USA) and for the sheep study using Watson^TM (version 7.4.2 PRD872, Thermo Fisher Scientific, Inc). Concentrations below the lower limit of quantitation were assigned a value of zero and the zero result used in the calculation of means and standard deviation using MicroSoft® Office® Excel® 2010 (version 14.0.; Redmond, WA). Descriptive statistics were calculated as appropriate. SigmaPlot® v11 (Systsat Software, IC., San Jose, CA, USA) and Excel® were used for the graphics.

The conditions of data set [6]: rat, in vivo, sc; cited from earlier work.
A short description of data set [7]: Serum pharmacokinetics in lymph duct cannulated (LDC) sheep (IV, SC). Details: species or system merino sheep. As to conditions: in vivo. On the procedure: as §1, §2, §3
The conditions of data set [8]: in vivo; cited from earlier work.
The conditions of data set [9]: in vivo, sc.
Experimental: Using a parallel group design, BIL was administered by single dose SC injection to non-LDC control sheep and to LDC sheep with a surgically placed popliteal lymph duct cannula (Table I). Blood was collected in each group, and lymph was continuously collected in the LDC sheep. BIL was also administered by bolus IV injection to a separate group of non-LDC animals for determining bioavailability and PK linearity.
Surgery was performed under aseptic conditions. Castrated male merino sheep (H.M. Barty & Sons Merino Stud, Robinvale, Victoria, Australia) weighing 31–48 kg were used. […]
In LDC sheep, lymph samples were collected in pre-weighed tubes containing 10 μL/mL of 10% EDTA at the following time points: Predose, 0–1, 1–2, 2–3, 3–4, 4–5, 5–6, 6–7, 7–8, 8–9, 9–10, 10–11, 11–12, 12–24, 24–36, 36–48, 48–60, 60–72, 72–84, 84–96 h post dose. At each time interval, the amount of lymph collected was determined gravimetrically. […]
BIL concentrations in serum and lymph were determined by ELISA performed by the bioanalytical testing facility Charles River Laboratories Preclinical Services (Senneville, Quebec, Canada) as described previously for rat serum ([27]). The assay quantitation range for rat serum was 20 pM to 500 pM. Assay quantitation range for sheep serum was from 20 pM to 500 pM. […] The quantitation range for sheep lymph was also 20 to 500 pM. […]
[10] abbreviates: non-LDC sheep, SC 120 nmol, serum, mean ± SD, N = 5.

Marks after values point to notes of the source that are not given here. A value given as a limit tells only on which side of the number the result lay.

In the case of “20-kDa PEG egg white lysozyme: 14.3-kDa egg white lysozyme with addition of 20-kDa PEG”, the hydrodynamic diameter in data set [1] was 9.6 nm.

As for egg white lysozyme, the hydrodynamic diameter in data set [1] is recorded as 4.0 nm.

Regarding insulin, the “% of the insulin dose recovered in the peripheral lymph” value in [2] is 17.3%. Further, the “apparent hydrodynamic diameter (DH)” value in data set [3] stood at 2.1 nm.

By Tmax is commonly meant the time from dosing to the highest level. By Cmax is commonly meant the peak of the concentration-time curve. Regarding insulin peglispro [BIL], the “clearance in sham versus 5/6-nephrectomized rats (in words)” value in [4] is recorded as “similar”. Besides, the “apparent hydrodynamic diameter (DH)” value in data set [3] came out at 7.6 nm. Also, the AUC0-t in data set [5] (in vivo, iv, 20 nmol) amounted to 0.0125667 ± 0.0018009 µM·h; in [5] (in vivo, iv, 40 nmol), 0.040075 ± 0.0124583 µM·h; in data set [5] (in vivo, iv, 120 nmol), 0.1116667 ± 0.0150444 µM·h; in data set [5] (in vivo, sc, 120 nmol), 0.14296 ± 0.0838207 µM·h; in [7] (iv, 120 nmol), 0.1395 ± 0.0606932 µM·h; in data set [7] (sc, 120 nmol), 0.0025945 ± 0.0025636 µM·h. For the same substance, the C0 in [5] (in vivo, iv, 20 nmol) was 11.133 ± 1.234 nM; in data set [5] (in vivo, iv, 40 nmol) it was 27.9 ± 6.124 nM; in [5] (in vivo, iv, 120 nmol), 60.4 ± 1.039 nM; in data set [7] (iv, 120 nmol) it was 70.175 ± 13.6001 nM. The CL is reported as 0.70 ± 0.09 mL/min/kg in data set [5] (in vivo, iv, 20 nmol); 0.53 ± 0.21 mL/min/kg in data set [5] (in vivo, iv, 40 nmol); 0.47 ± 0.06 mL/min/kg in [5] (in vivo, iv, 120 nmol); 0.37 ± 0.12 mL/min/kg in data set [7] (iv, 120 nmol). In addition, the T1/2 in data set [5] (in vivo, iv, 20 nmol) was 1.6 ± 0.1 h; in data set [5] (in vivo, iv, 40 nmol), 2.8 ± 0.3 h; in data set [5] (in vivo, iv, 120 nmol), 3.3 ± 1.2 h; in data set [5] (setting [10]) it was 7.5 ± 5.1 h; in [7] (iv, 120 nmol), 5.7 ± 2.1 h; in data set [7] (sc, 120 nmol), 4.6 ± 4.0^a hours. For the same substance, the Vdss in data set [5] (in vivo, iv, 20 nmol) turned out to be 0.05 ± 0.01 L/kg; in [5] (in vivo, iv, 40 nmol), 0.04 ± 0.01 L/kg; in [5] (in vivo, iv, 120 nmol), 0.07 ± 0.04 L/kg; in data set [7] (iv, 120 nmol), 0.04 ± 0.01 L/kg. Besides, the “% bioavailability” value is listed as 123% in [5] (in vivo, sc); under 2% in data set [7] (sc); 1.7% in data set [7] (sc, 120 nmol). For the same substance, the Tmax in data set [5] (setting [10]) is 2.4 ± 0.9 h; in data set [7] (sc, 120 nmol), 2.3 ± 1.0 h. Besides, in data set [6], the “% of dose excreted unchanged in urine” value is reported as 2.5%. The Cmax in data set [7] (sc, 120 nmol) was 0.4153 ± 0.384 nM. In addition, the “PK properties in renal insufficiency (in words)” value in [8] was “unaffected”. The “% of dose recovered in the peripheral lymph” value in data set [9] was 88%.

leptin: the entries for the “apparent hydrodynamic diameter (DH)” value in data set [3] and in data set [3] (listed as Leptin) were 4.3 nm and 4.2 nm, respectively.
